test: soluble on expression in E. coli; label from the status in PepcDB or PDB records

Sequence | soluble on expression in E. coli
MGSDKIHHHHHHMSKIFAQDTDCSFLIEQAVKAPSGHNTQPWTFRIKETGIDILPDFTKTLPVVDPDNRELFVSLGCATENLCVAAAHKGYETMVSIAENGTIHIELTKQDSDTPSPLFPHISVRQTNRSVYDGNTIPVNDIVALGEKSDMEPCVGAHFFKNGTREFDAISEMVCEGNSIQMRDKKFKEELQQWMRYNKKHQDATRDGLSYAVFGAPNLSRFIAKAIITRLINEKSQNRNDRRKIASSSHFVLFTTSNNTVVQWIKLGRALEHILLKATGMGISHAYMNQPNEVQGLSGKMAEILGIEDEYPTVLIRLGYGSKMPYSLRRSVQSCIIPNSFD | not soluble
SRFRFCGDLDCPDWVLAEISTLAKISSVKLRLLCSQVLKELLGQGIDYEKILKLTADAKFESGDVKATVAVLSFILSSAAKHSVDSDSLSSELQQLGLPKEHATSLCRCYEEKQSPLQEHLRACSLRVNRLASVGWRVDYTLSSSLLHSVEEPMVHLQLQVVPAPGTQAQPVSMSLSADKFQVLLAELKQAQTMMTALG | soluble
MKVYYECAPCFLRQAREAIDLATDDEELKLRVMENILELLSERFRRGQVSNELGTRMHRLIKDMTGSEDPYLDEKRRCNEIALRFLPTVRDYLECHSDLESHVKVAITGNIIDFGALGLDFDHDRGIQESLRAPLTINHVPLLEDRLREASEVLYLLDNTGEILFDRPLIEKLAGYDVSVKVAVKGEPILNDACMEDALEAGLDEVAEIVTTGTDSVGIVYSDLSDEFRDMLDGTELVIAKGMGNYEGLTEISDGSRDIFCLLNAKCSAIARDLGVARGDNVAVKI | not soluble
MRNNQPVTQKEVTYPPHFNLLSTTTLSSHIKYASKEFCDVAGYTLDELVNQPHNMVRHPDMPPEAFKDMWEHLKAGKSWMGMVKNRCKNGDHYWVDAFASPIKENGK | not soluble
MKTKYVVIIQCDMAKNRCSGMRCTNAFYEKTDAFENYAKDTKYISFTCGGCSGKVVSSKLANFSRWLKKYDCIKKDEVTIHLSSCMSTDNSHYDRCPNIDYIKQIINKKGYTNIVEGSIFSKKSEKLRDEGIYKKYQ | not soluble
MGNTLGLAPMGTLPRRSPRREEPLPNPGSFDELHRLCKDVFPAQMEGVKLVVNKVLSSHFQVAHTIHMSALGLPGYHLHAAYAGDWQLSPTEVFPTVVGDMDSSGSLNAQVLLLLAERLRAKAVFQTQQAKFLTWQFDGEYRGDDYTATLTLGNPDLIGESVIMVAHFLQSLTHRLVLGGELVYHRRPGEEGAILTLAGKYSAVHWVATLNVGSGGAHASYYHRANEQVQVGVEFEANTRLQDTTFSFGYHLTLPQANMVFRGLVDSNWCVGAVLEKKMPPLPVTLALGAFLNHWRNRFHCGFSITVG | soluble
MSKILVFGHQNPDSDAIGSSYAFAYLAREAYGLDTEAVALGEPNEETAFVLDYFGVAAPRVITSAKAEGAEQVILTDHNEFQQSVADIAEVEVYGVVDHHRVANFETASPLYMRLEPVGSASSIVYRMFKEHGVAVPKEIAGLMLSGLISDTLLLKSPTTHPTDKVIAPELAELAGVNLEEYGLAMLKAGTNLASKSAEELIDIDAKTFELNGNNVRVAQVNTVDIAEVLERQAEIEAAIEKAIADNGYSDFVLMITDIINSNSEILAIGSNMDKVEAAFNFVLENNHAFLAGAVSRKKQVVPQLTESFNA | soluble
MAHHHHHHMYVVGPMVDQSELPFRMLCRRYGATLAYSPMLHARSFAQSAQYRARYFSTTPHRAEPAMTATVSGEGEAAEDAGRTSDGKETDHPLFVQFCGNDADTLLAAARHVEDDCEAVDVNLGCPQGIARRGHYGSFLMEDWDRVHNILHCLAVELRVPVTAKMRVFDDDALTLKYAEMLRDTGIAVLCVHGRTRHNKRGLADMEKIRRVREHLRGSIPVIGNGNVLTFEDVRRNMSVTMTDGYMCAEPLLWDPRLFAAPLHPVRNGRCFAECCEARLDAIRTAQEYLQLVQRYPVDLAFVKAHLFKMLFHSYEMHPVMHGWLTNFSCNGRGGNNNNNAGSDVNGEVEDGDIDDGRSPDGASESGSGNANKAESNVKQAAGNLDFFAFAMDALGEHLRQLYAAEVSCGVEGPQPKRAHEREKGVNDDTSSSAKRKVETSHDAFAEDDVFGIDFDLNKK | soluble
QKIEKQYDADLEQILIQWITTQCRKDVGRPQPGRENFQNWLKDGTVLCELINALYPEGQAPVKKIQASTMAFKQMEQISQFLQAAERYGINTTDIFQTVDLWEGKNMACVQRTLMNLGGLAVARDDGLFSGDPNWFPKKSKE | soluble
AHHHHHHGSKAFISIDLEGLPYIVSREHLFVKGALYNEARKIATKIAKIAAEKLHEEGFEEIVIADSHGPMVNIIPEEMPSYVSIVRGFPRPLSMVAFGKGSDIAIFLGYHAKAGTSFATFDHTYSGATIDKIIISGIEVSEFLLNSMVLGEWGVPIGLVAGDEALKEDLKYVPWAEFIPLKKASGRYSALSPSMEAIEKELKAGIKRAVEKLNNKELRAFKIETPVDVEIRFLNSAYAEVADLLPGVERIDGKTIRFTANTVEDAYKIMEVLTLAAAGVSYIVSR | not soluble
MGSDKIHHHHHHMSAHEMNHATPRLPAPLFVTGTDTGVGKTVVSLLLMRALFRRGMVPFYAKPMQTGCRDPYDTDSDAAFVYRHVPELAERDPAEAVGWCFRAPKAPLHAARDERNGVETEDLMRRLAILRATHACLVLEGAGGLMVPFTADALCVDCIRAADARPVLVARDGLGTVNHTLLSVEAMTRRGVTPAGIVFVASGKRPTPSDLVHDNMEAVAMLSGISVSGIVPPILDFHAPPEAALTVADAVIDAALGL | not soluble
MRVVIQRVKGAILSVRKENIGENEKELEIISEIKNGLICFLGIHKNDTWEDALYIIRKCLNLRLWNNDNKTWDKNVKDLNYELLIVSQFTLFGNTKKGNKPDFHLAKEPNEALIFYNKIIDEFKKQYNDDKIKIGKFGNYMNIDVTNDGPVTIYIDTHDINLNK | soluble
MYDFKKINNLRGIERETLRVTDCGNLATSNHPDGLGHKLTNNSITVDFSENLLELITKPHDSIDKAIGELYQLSAFTLDNMHSDEIILNTSMPLSANDNDIQEADFGSSNSGRMKRVYRKGLSARYGKIMQIISGIHYNFSFDKDLISNIATNKQVSISDIYFDVLNNYFEFMWLLPYLFGASPICAKTSVKNKPDYLSVLDDKFYVGEYATSLRMSDLGYTSPAQKDLAISYDNVKAYVKDLIQATDDTFADYKRIGLYNSQGQRIQLNDGILQIENEYYSAIRPKQIAKRGERPACALYNRGVEYVEVRVLDVDPFEPVGISKDTALFVEVMLMTCLDKDAKKYHKDIIKQAKQNLTAVAIQGRNPQLKLKKLDDDSEILLKDYALELFDEIEAVAKKMPKEYLDAVEIQKRKVLDISQTPSAKIIELARQHGYKKFILDISRRVSQQFRSYELPAAIVAKLKDQAGQSVAAEKELVANDKISLDEYINRYYKSSKGCC | not soluble
EPLRVLELYSGVGGMHHALRESCIPAQVVAAIDVNTVANEVYKYNFPHTQLLAKTIEGITLEEFDRLSFDMILMSPPCQPFTRIGRQGDMTDSRTNSFLHILDILPRLQKLPKYILLENVKGFEVSSTRDLLIQTIENCGFQYQEFLLSPTSLGIPNSRLRYFLIAKLQSEPLPFQAPGQVLMEFPKIEIHRKNQQDSDLSVKMLKDFLEDDTDVNQYLLPPKSLLRYALLLDIVQPTCRRSVCFTKGYGSYIEGTGSVLQTAEDVQVENIYKSLTNLSQEEQITKLLILKLRYFTPKEIANLLGFPPEFGFPEKITVKQRYRLLGNSLNVHVVAKLIKILYE | soluble
MSLNKLAFLFPLLLAPGVAHAEPPQGVEFLHWWTSDGEQQALQTLKAQLKRHDIELLQSPVLGGGGDSAMTVLQARALAGNPPSFAQIEGPSIKAWDAIGILHNVNAVADEQRWDEVLYPLSIEINKTQNGYIALPLTLHRLNWLWVNHKLLKQLNLSAPKNWQEMFAAMELAEQNGIVPIAVGEQPWQVAQLFENLVISTGGVEFYTNAMVKLERDSIDSETLRQALTQFRRLSLLIDNQLPDSKWDTATQALADGQALFQIGGDWILGELLANQVSVPQEVGCYPTPDSDGVFLYNMDSLVFMSSKSFSSEAAQQTASALADVEFQAKFNKVKGSIPVRTDIDISDFNPCQVQSYQDFHYGVKHNLAVPSMIDSMAVNPVAQQAINSEIFRFYRNPKMEPDELIKRIIAISQSGEGHHHHHH | soluble
MSLDKVERRLYELYEKAINYEPLSKEEALYILEVDDIYVPFLVHLAQKIKKHYFPENEVEFCSIINAKSGACSEDCKFCAQSKYYKTPINVYNLVPVDEMVEGAIRGVEFGANRYCIVLSGKSATKEEVERITEAVKEIKNEGLPINVCVSAGTLDEESLKKLKEAGVKRINHNLETSRNFFKNIVTTHTWEDRYETIKRIKKVGLSTCSGGIFGMGESNEDRVDMALTYRELEVDSIPLNFLMPIEGTPMENAPGVEVMEALKIIAMFRFTNPKAELRLCGGREQNLRDFHGMATLMTNAMMVGGYLTRAGRDIKKDYQLLKDLKAKRKVSVEEGHHHHHH | soluble
ALQNKEEEKKKVKKLQKSYFDVLGICCTSEVPIIENILKSLDGVKEYSVIVPSRTVIVVHDSLLISPFQIAKALNEARLEANVRVNGETSFKNKW | soluble
MGSDKIHHHHHHMFKKVAADVLGLSDVGSVITPKDYDKVDADDYVMHEDGEKIYFLIKSKSDEYCFTNKGLLHLDGTSATSKKRTLRRFSYSKYQIKNVALETAGTIDLDVEIKFQMGDEHYSIDVHKKHIEELKDLYKALLKIEEISYDNDITLQYAHKSLDMASNAFSRISNAQVNLAEQFKEMNEIAFNWLVDTKKQYNVKDYGFVFEKFINN | not soluble
MAHHHHHHMSKKRKSYENDEDVYDNKRNKKNVASSIDSYGRKVWDKEYYQKKVDEKVENDEDELILKLLPDLKKKSKLEPPPPSERKLLEERKENLLLEKNLGKVQILTQKTPKNEQGGYYCKICDCVLKDSQTYLDHINGKNHNRMLGYSMKVKKVTLDDVKKRLSLLKDKKQNKTEDVEKDPYEDAKKNLKDMQEDEERRIQKRKEKKMLKKLEKEKKKNENENENNDEESDNMNMMFKEMGLPTSFV | soluble
GAMGNKEKADQQKAITDIVALENALDMYKLDNSVYPTTDQGLEALVTKPSSPEPRNYRNGGYIKRLPKDPWGNEYQYMSPGDKGTIDIFTLGADGQEGGEGAAADIGNWNMQDFQ | soluble
MLTLSPPPAYLVTAANPAPSVAAAAPRALVFGGSGQIGERLLTRLLGRGWQVTAWSRAPRAARAGLIWRQGDLAAPAVAGESFEVIFSCGPLDHFAHWYETNAVSTPRIVAFGSTSVEVKEHSIDAAERDVAQRLANAEQALFSAAKARGAAATVLRPTLVYGAGRDRTLTQIAGLARRTGAFVLPANATGLRQPVHVDDLASAALAVVTQPATHQRSYAVGGGEVLAYTQMVERVLEALPRPARLYQVPPSLFGLALTTAQRLGRLRSLNTAALQRMRDDLVFDLEPARRDFGYAPRAFRPLPEELGIGELEHHHHHH | not soluble
MSLDISFQIQDAVASVIRAPLASPFRIATGQHDELENVFLKLTTRDGVSGYGEAAVASHITGETVPGTLANLQNAAAALRGQTVDDAESACRQFAAAFAGNHAGLAALEMALLDLSSRVRGIPFYRLFAPVAALEPRLAFSTDITVVIGSLDEARATAREFASRGFKAFKIKIGRDEQLDLARVLAVHEIAPDSQIILDANMGFSAGSMLAFLDRLAAKGVRPVLLEQPVPKMDWDGLSEITAALTGSETLVCADESVGSLADARRAIDSNAVSAINVKFMKSGILEGAEIARLAASRGIRLMLGAMMESALAVTASAHFAAGLACFDYLDMDTTFFLKGELAHSPYLDEHGRFDLHDAGPGIGVEPRFSEGHHHHHH | soluble

From the DeepSol protein solubility set
